Test results taken from patent US20250163162A1.

Columns and labels:
[1] = biological target: T1, IL10Rα and IL2Rγ on human primary cells (CD8 T cells, CD4 T cells, monocytes) (human) (UniProt Q13651); assay: cell-based or functional assay
T1 sequence (looked up) 1: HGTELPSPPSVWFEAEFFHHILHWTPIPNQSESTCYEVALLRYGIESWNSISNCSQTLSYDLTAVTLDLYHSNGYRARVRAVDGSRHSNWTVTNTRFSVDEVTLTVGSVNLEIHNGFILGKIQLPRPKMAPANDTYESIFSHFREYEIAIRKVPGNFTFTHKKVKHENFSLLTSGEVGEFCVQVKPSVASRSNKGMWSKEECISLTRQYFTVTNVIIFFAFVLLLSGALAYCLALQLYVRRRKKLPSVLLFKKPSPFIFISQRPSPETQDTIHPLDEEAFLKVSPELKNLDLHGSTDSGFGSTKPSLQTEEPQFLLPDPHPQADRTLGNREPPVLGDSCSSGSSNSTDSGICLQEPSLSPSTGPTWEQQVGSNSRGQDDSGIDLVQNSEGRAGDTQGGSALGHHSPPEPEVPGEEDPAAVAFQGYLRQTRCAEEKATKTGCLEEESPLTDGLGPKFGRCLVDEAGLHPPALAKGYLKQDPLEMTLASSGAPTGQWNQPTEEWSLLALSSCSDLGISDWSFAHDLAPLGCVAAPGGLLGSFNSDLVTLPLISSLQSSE
T1 sequence (looked up) 2: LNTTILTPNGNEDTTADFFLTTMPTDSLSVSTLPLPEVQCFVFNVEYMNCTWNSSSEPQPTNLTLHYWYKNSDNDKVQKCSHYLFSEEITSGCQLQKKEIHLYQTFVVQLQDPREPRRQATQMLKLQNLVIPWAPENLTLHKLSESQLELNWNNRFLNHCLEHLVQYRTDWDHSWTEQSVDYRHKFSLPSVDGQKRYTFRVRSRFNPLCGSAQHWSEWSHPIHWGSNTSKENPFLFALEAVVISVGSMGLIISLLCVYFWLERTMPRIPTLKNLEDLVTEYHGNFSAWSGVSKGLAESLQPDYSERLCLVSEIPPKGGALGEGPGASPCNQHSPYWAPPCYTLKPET

[2] = biological target: T2, IL10Rα/IL2Rγ receptor (human) (UniProt Q13651); assay: cell-based or functional assay
T2 sequence (looked up) 1: T1 sequence (looked up) 1
T2 sequence (looked up) 2: T1 sequence (looked up) 2

B1: hIL10Ra_VHH14-hIL2Rg_VHH19, linker GGGS, tag Fc (Fc fusion, not shown: a dimerising Fc or GST)
chain: QVQLQESGGGSVQAGGSLRLSCGASGYTYSSYCMGWFRQVPGKEREGVAVIDSDGSTSYADSVKGRFTISKDNGKNTLYLQMNSLKPEDTAMYYCAADLGHYRPPCGVLYLGMDYWGKGTQVTVSSGGGSQVQLQESGGGSVQAGGSLRLSCTASGFTFDDREMNWYRQAPGNECELVSTISSDGSTYYADSVKGRFTISQDNAKNTVYLQMDSVKPEDTAVYYCAADFMIAIQAPGAGCWGQGTQVTVSS
pSTAT3 (MFI) in CD4 T cells at 0.0001 µM [1]: 12600 MFI | pSTAT3 (MFI) in CD4 T cells at 0.001 µM [1]: 12600 MFI | pSTAT3 (MFI) in CD4 T cells at 0.01 µM [1]: 12500 MFI | pSTAT3 (MFI) in CD4 T cells at 0.1 µM [1]: 11300 MFI | pSTAT3 (MFI) in CD4 T cells at 1 µM [1]: 13600 MFI | pSTAT3 (MFI) in CD4 T cells at 10 µM [1]: 14800 MFI | pSTAT3 (MFI) in CD4 T cells at 100 µM [1]: 16000 MFI | pSTAT3 (MFI) in CD8 T cells at 0.0001 µM [1]: 7540 MFI | pSTAT3 (MFI) in CD8 T cells at 0.001 µM [1]: 7890 MFI | pSTAT3 (MFI) in CD8 T cells at 0.01 µM [1]: 7800 MFI | pSTAT3 (MFI) in CD8 T cells at 0.1 µM [1]: 7330 MFI | pSTAT3 (MFI) in CD8 T cells at 1 µM [1]: 9320 MFI | pSTAT3 (MFI) in CD8 T cells at 10 µM [1]: 12300 MFI | pSTAT3 (MFI) in CD8 T cells at 100 µM [1]: 13200 MFI | pSTAT3 (MFI) in monocytes at 0.0001 µM [1]: 4370 MFI | pSTAT3 (MFI) in monocytes at 0.001 µM [1]: 4740 MFI | pSTAT3 (MFI) in monocytes at 0.01 µM [1]: 4420 MFI | pSTAT3 (MFI) in monocytes at 0.1 µM [1]: 4810 MFI | pSTAT3 (MFI) in monocytes at 1 µM [1]: 5690 MFI | pSTAT3 (MFI) in monocytes at 10 µM [1]: 6690 MFI | pSTAT3 (MFI) in monocytes at 100 µM [1]: 6030 MFI

B2: hIL10Ra_VHH14 - hIL2Rg_VHH19, linker …, tag his (bispecific antibody, not shown: small tags and cut ends)
chain: QVQLQESGGGSVQAGGSLRLSCGASGYTYSSYCMGWFRQVPGKEREGVAVIDSDGSTSYADSVKGRFTISKDNGKNTLYLQMNSLKPEDTAMYYCAADLGHYRPPCGVLYLGMDYWGKGTQVTVSSGGSGGSGGSGQVQLQESGGGSVQAGGSLRLSCTASGFTFDDREMNWYRQAPGNECELVSTISSDGSTYYADSVKGRFTISQDNAKNTVYLQMDSVKPEDTAVYYCAADFMIAIQAPGAGCWGQGTQVTVSS
Granzyme A secretion, CD8 T cells, at 0 µM [2]: 25200 pg/mL | Granzyme A secretion, CD8 T cells, at 0.0001 µM [2]: 20600 pg/mL | Granzyme A secretion, CD8 T cells, at 0.001 µM [2]: 25200 pg/mL | Granzyme A secretion, CD8 T cells, at 0.01 µM [2]: 28100 pg/mL | Granzyme A secretion, CD8 T cells, at 0.1 µM [2]: 29300 pg/mL | Granzyme A secretion, CD8 T cells, at 1 µM [2]: 31000 pg/mL | Granzyme A secretion, CD8 T cells, at 10 µM [2]: 31500 pg/mL | Granzyme A secretion, CD8 T cells, at 100 µM [2]: 29900 pg/mL | Granzyme B secretion, CD8 T cells, at 0 µM [2]: 77700 pg/mL | Granzyme B secretion, CD8 T cells, at 0.0001 µM [2]: 68900 pg/mL | Granzyme B secretion, CD8 T cells, at 0.001 µM [2]: 70600 pg/mL | Granzyme B secretion, CD8 T cells, at 0.01 µM [2]: 71000 pg/mL | Granzyme B secretion, CD8 T cells, at 0.1 µM [2]: 79300 pg/mL | Granzyme B secretion, CD8 T cells, at 1 µM [2]: 112000 pg/mL | Granzyme B secretion, CD8 T cells, at 10 µM [2]: 125000 pg/mL | Granzyme B secretion, CD8 T cells, at 100 µM [2]: 106000 pg/mL | IFNγ secretion, CD8 T cells, at 0 µM [2]: 122000 pg/mL | IFNγ secretion, CD8 T cells, at 0.0001 µM [2]: 90100 pg/mL | IFNγ secretion, CD8 T cells, at 0.001 µM [2]: 125000 pg/mL | IFNγ secretion, CD8 T cells, at 0.01 µM [2]: 127000 pg/mL | IFNγ secretion, CD8 T cells, at 0.1 µM [2]: 130000 pg/mL | IFNγ secretion, CD8 T cells, at 1 µM [2]: 147000 pg/mL | IFNγ secretion, CD8 T cells, at 10 µM [2]: 154000 pg/mL | IFNγ secretion, CD8 T cells, at 100 µM [2]: 141000 pg/mL | IL-1β secretion, LPS treated monocytes, at 0 µM [2]: 6240 pg/mL | IL-1β secretion, LPS treated monocytes, at 0 µM (LPS only) [2]: 6880 pg/mL | IL-1β secretion, LPS treated monocytes, at 0.0001 µM [2]: 5890 pg/mL | IL-1β secretion, LPS treated monocytes, at 0.001 µM [2]: 5390 pg/mL | IL-1β secretion, LPS treated monocytes, at 0.01 µM [2]: 6020 pg/mL | IL-1β secretion, LPS treated monocytes, at 0.1 µM [2]: 5240 pg/mL | IL-1β secretion, LPS treated monocytes, at 1 µM [2]: 5680 pg/mL | IL-1β secretion, LPS treated monocytes, at 10 µM [2]: 7120 pg/mL | IL-1β secretion, LPS treated monocytes, at 100 µM [2]: 8780 pg/mL | IL-9 secretion, CD8 T cells, at 0 µM [2]: 1350 pg/mL | IL-9 secretion, CD8 T cells, at 0.0001 µM [2]: 1010 pg/mL | IL-9 secretion, CD8 T cells, at 0.001 µM [2]: 1320 pg/mL | IL-9 secretion, CD8 T cells, at 0.01 µM [2]: 1390 pg/mL | IL-9 secretion, CD8 T cells, at 0.1 µM [2]: 1450 pg/mL | IL-9 secretion, CD8 T cells, at 1 µM [2]: 1590 pg/mL | IL-9 secretion, CD8 T cells, at 10 µM [2]: 2050 pg/mL | IL-9 secretion, CD8 T cells, at 100 µM [2]: 1960 pg/mL

B3: hIL10Ra_VHH14 - hIL2Rg_VHH19, linker GGGSGGGS, tag his (bispecific antibody, not shown: small tags and cut ends)
chain: QVQLQESGGGSVQAGGSLRLSCGASGYTYSSYCMGWFRQVPGKEREGVAVIDSDGSTSYADSVKGRFTISKDNGKNTLYLQMNSLKPEDTAMYYCAADLGHYRPPCGVLYLGMDYWGKGTQVTVSSGGGSGGGSQVQLQESGGGSVQAGGSLRLSCTASGFTFDDREMNWYRQAPGNECELVSTISSDGSTYYADSVKGRFTISQDNAKNTVYLQMDSVKPEDTAVYYCAADFMIAIQAPGAGCWGQGTQVTVSS
Granzyme A secretion, CD8 T cells, at 0 µM [2]: 25200 pg/mL | Granzyme A secretion, CD8 T cells, at 0.0001 µM [2]: 19700 pg/mL | Granzyme A secretion, CD8 T cells, at 0.001 µM [2]: 22300 pg/mL | Granzyme A secretion, CD8 T cells, at 0.01 µM [2]: 22700 pg/mL | Granzyme A secretion, CD8 T cells, at 0.1 µM [2]: 26000 pg/mL | Granzyme A secretion, CD8 T cells, at 1 µM [2]: 30100 pg/mL | Granzyme A secretion, CD8 T cells, at 10 µM [2]: 29300 pg/mL | Granzyme A secretion, CD8 T cells, at 100 µM [2]: 24800 pg/mL | Granzyme B secretion, CD8 T cells, at 0 µM [2]: 77700 pg/mL | Granzyme B secretion, CD8 T cells, at 0.0001 µM [2]: 52600 pg/mL | Granzyme B secretion, CD8 T cells, at 0.001 µM [2]: 45500 pg/mL | Granzyme B secretion, CD8 T cells, at 0.01 µM [2]: 47300 pg/mL | Granzyme B secretion, CD8 T cells, at 0.1 µM [2]: 62200 pg/mL | Granzyme B secretion, CD8 T cells, at 1 µM [2]: 80500 pg/mL | Granzyme B secretion, CD8 T cells, at 10 µM [2]: 83500 pg/mL | Granzyme B secretion, CD8 T cells, at 100 µM [2]: 78100 pg/mL | IFNγ secretion, CD8 T cells, at 0 µM [2]: 122000 pg/mL | IFNγ secretion, CD8 T cells, at 0.0001 µM [2]: 95500 pg/mL | IFNγ secretion, CD8 T cells, at 0.001 µM [2]: 108000 pg/mL | IFNγ secretion, CD8 T cells, at 0.01 µM [2]: 102000 pg/mL | IFNγ secretion, CD8 T cells, at 0.1 µM [2]: 122000 pg/mL | IFNγ secretion, CD8 T cells, at 1 µM [2]: 142000 pg/mL | IFNγ secretion, CD8 T cells, at 10 µM [2]: 143000 pg/mL | IFNγ secretion, CD8 T cells, at 100 µM [2]: 120000 pg/mL | IL-1β secretion, LPS treated monocytes, at 0 µM [2]: 6240 pg/mL | IL-1β secretion, LPS treated monocytes, at 0 µM (LPS only) [2]: 6880 pg/mL | IL-1β secretion, LPS treated monocytes, at 0.0001 µM [2]: 5950 pg/mL | IL-1β secretion, LPS treated monocytes, at 0.001 µM [2]: 6200 pg/mL | IL-1β secretion, LPS treated monocytes, at 0.01 µM [2]: 4960 pg/mL | IL-1β secretion, LPS treated monocytes, at 0.1 µM [2]: 5590 pg/mL | IL-1β secretion, LPS treated monocytes, at 1 µM [2]: 5670 pg/mL | IL-1β secretion, LPS treated monocytes, at 10 µM [2]: 6020 pg/mL | IL-1β secretion, LPS treated monocytes, at 100 µM [2]: 6840 pg/mL | IL-9 secretion, CD8 T cells, at 0 µM [2]: 1350 pg/mL | IL-9 secretion, CD8 T cells, at 0.0001 µM [2]: 988 pg/mL | IL-9 secretion, CD8 T cells, at 0.001 µM [2]: 1050 pg/mL | IL-9 secretion, CD8 T cells, at 0.01 µM [2]: 1010 pg/mL | IL-9 secretion, CD8 T cells, at 0.1 µM [2]: 1300 pg/mL | IL-9 secretion, CD8 T cells, at 1 µM [2]: 1380 pg/mL | IL-9 secretion, CD8 T cells, at 10 µM [2]: 1880 pg/mL | IL-9 secretion, CD8 T cells, at 100 µM [2]: 1700 pg/mL
